B1: SEQ ID NO: 599: four-hairpin amiRNA, guides SEQ ID NOs 103, 104, 102, 105 to Cricetulus griseus interferon receptor subunit 2 mRNA (nucleic acid)
chain: ATCTGATCTTCTGAAGAAAATATATTTCTTTTTATTCATAGCTCTTAACTAGTGGTGATAGCAATGTCAGCAGTGCCTAAGACTATCAGCAAGAACCAGGGTGAAGCCACAGATGCCTGGTTCTTACTGATAGTCTCAAGTAAGGTTGACCATACTCTACTCTAGTTATATTCTTTAGGCACGAATGTGTGTTTAAAAAAAATAAAAACTAGTGGTGATAGCAATGTCAGCAGTGCCTTTGAAGATAACTTTGTCCCCGGGTGAAGCCACAGATGCCGGGGACAACGTTATCTTCACAAGTAAGGTTGACCATACTCTACTCTAGAGTTGTGTTTTAATGTATATTAATGTTACTAATGTGTTTACTAGTGGTGATAGCAATGTCAGCAGTGCCTTAAACAACAATGGATCCCCAAAGTGAAGCCACAGATGTTTGGGGATCAATTGTTGTTTCAAGTAAGGTTGACCATACTCTACTCTAGGTTATTTTTAGTATGATTCTGTAAAAATGAATTAATACTAACTAGTGGTGATAGCAATGTCAGCAGTGCCTTTGCTCATGATTGTGAACCAAAGTGAAGCCACAGATGTTTGGTTCACCATCATGAGCACAAGTAAGGTTGACCATACTCTACTCTAGTCAGTTTTATTGATAGTCTTTTCAGTATTATTGATAATCTT
B2: SEQ ID NO: 598: four-hairpin amiRNA, guides SEQ ID NOs 95, 97, 96, 98 to Cricetulus griseus interferon receptor subunit 1 mRNA (nucleic acid)
chain: ATCTGATCTTCTGAAGAAAATATATTTCTTTTTATTCATAGCTCTTAACTAGTGGTGATAGCAATGTCAGCAGTGCCTTAAAATAACACACAAGAGCCATGTGAAGCCACAGATGATGGCTCTTGCGTGTTATTTTCAAGTAAGGTTGACCATACTCTACTCTAGTTATATTCTTTAGGCACGAATGTGTGTTTAAAAAAAATAAAAACTAGTGGTGATAGCAATGTCAGCAGTGCCTTTAAACAGTAAGTAGTCTCTGGGTGAAGCCACAGATGCCAGAGACTAATTACTGTTTACAAGTAAGGTTGACCATACTCTACTCTAGAGTTGTGTTTTAATGTATATTAATGTTACTAATGTGTTTACTAGTGGTGATAGCAATGTCAGCAGTGCCTTTGGGTGTTAATAAAAAGGCAGGTGAAGCCACAGATGCTGCCTTTTTCTTAACACCCACAAGTAAGGTTGACCATACTCTACTCTAGGTTATTTTTAGTATGATTCTGTAAAAATGAATTAATACTAACTAGTGGTGATAGCAATGTCAGCAGTGCCTTTCATTTTGACATACATACTTGGTGAAGCCACAGATGCAAGTATGTACGTCAAAATGACAAGTAAGGTTGACCATACTCTACTCTAGTCAGTTTTATTGATAGTCTTTTCAGTATTATTGATAATCTT

Assays:
[1] = test system: Cricetulus griseus interferon receptor subunit 2 mRNA; experiment: Expression of human interferon beta from CHO cells (ELISA), amiRNA to interferon receptor subunit 2; assay type: cell-based; conditions: for Titer: 10-day fed batch
Source text: One multi-hairpin amiRNA, with nucleotide sequence SEQ ID NO: 599, comprised four hairpins; the first hairpin comprised a guide strand with nucleotide sequence SEQ ID NO: 103, immediately followed by a loop with nucleotide sequence SEQ ID NO: 241 and passenger strand with nucleotide sequence SEQ ID NO: 188; the second hairpin comprised a guide strand with nucleotide sequence SEQ ID NO: 104, immediately followed by a loop with nucleotide sequence SEQ ID NO: 241 and passenger strand with nucleotide sequence SEQ ID NO: 189; the third hairpin comprised a guide strand with nucleotide sequence SEQ ID NO: 102, immediately followed by a loop with nucleotide sequence SEQ ID NO: 241 and a passenger strand with nucleotide sequence SEQ ID NO: 187; the fourth hairpin comprised a guide strand with nucleotide sequence SEQ ID NO: 105, immediately followed by a loop with nucleotide sequence SEQ ID NO: 241 and a passenger strand with nucleotide sequence SEQ ID NO: 190. Each of these four guide strand sequences was a 22 base sequence that was an exact reverse complement of a different region within the Cricetulus griseus interferon receptor subunit 2 mRNA (with nucleotide sequence SEQ ID NO: 20). Each passenger strand sequence was complementary to its corresponding guide strand sequence, except that the bases in the passenger strand sequences corresponding to the 5′ base of the guide strand and the twelfth base of the guide strand were changed to be non-complementary.
(§1) Each of the five polynucleotides was a transposon which further comprised a left end comprising a 5′-TTAA-3′ target sequence immediately followed by an ITR with SEQ ID NO: 423 (which is an embodiment of SEQ ID NO: 421) and additional sequence with SEQ ID NO: 417 and a right end comprising SEQ ID NO: 419 immediately followed by an ITR with SEQ ID NO: 424 (which is an embodiment of SEQ ID NO: 422) immediately followed by a 5′-TTAA-3′ target sequence. Each transposon further comprised a gene encoding a glutamine synthetase selectable marker. […] Each transposon further comprised the same promoter operably linked to an open reading frame encoding human interferon beta. […]
(§2) Transposons were co-transfected with mRNA encoding transposase with polypeptide sequence SEQ ID NO: 502 into a CHO host lacking a functional glutamine synthetase gene. […] Interferon beta levels in the culture supernatant were measured using an ELISA assay.
(§3) Table 11. […] Transposons for the expression of human interferon beta were constructed, transfected and expressed as described in Section 6.4.1. The amiRNA SEQ ID NO is shown in column A. Following a 10-day fed batch of duplicate cultures for each sample, the concentration of interferon was measured by ELISA. Measured interferon concentrations in culture supernatants are show in columns B and C. […]

[2] = test system: Cricetulus griseus interferon receptor subunit 1 mRNA; experiment: Expression of human interferon beta from CHO cells (ELISA), amiRNA to interferon receptor subunit 1; assay type: cell-based; conditions: for Titer: 10-day fed batch
Source text: One multi-hairpin amiRNA, with nucleotide sequence SEQ ID NO: 598, comprised four hairpins; the first hairpin comprised a guide strand with nucleotide sequence SEQ ID NO: 95, immediately followed by a loop with nucleotide sequence SEQ ID NO: 241 and passenger strand with nucleotide sequence SEQ ID NO: 180, the second hairpin comprised a guide strand with nucleotide sequence SEQ ID NO: 97, immediately followed by a loop with nucleotide sequence SEQ ID NO: 241 and passenger strand with nucleotide sequence SEQ ID NO: 182, the third hairpin comprised a guide strand with nucleotide sequence SEQ ID NO: 96, immediately followed by a loop with nucleotide sequence SEQ ID NO: 241 and a passenger strand with nucleotide sequence SEQ ID NO: 181, the fourth hairpin comprised a guide strand with nucleotide sequence SEQ ID NO: 98, immediately followed by a loop with nucleotide sequence SEQ ID NO: 241 and a passenger strand with nucleotide sequence SEQ ID NO: 183. Each of these four guide strand sequences was a 22 base sequence that was an exact reverse complement of a different region within the Cricetulus griseus interferon receptor subunit 1 mRNA (with nucleotide sequence SEQ ID NO: 19. Each passenger strand sequence was complementary to its corresponding guide strand sequence, except that the bases in the passenger strand sequences corresponding to the 5′ base of the guide strand and the twelfth base of the guide strand were changed to be non-complementary.
as §1, §2, §3

[3] = control transposon expressed 48 μg/ml
[4] = interferon beta in supernatant, first of duplicate cultures
[5] = interferon beta, second of duplicate cultures

| Molecule | Average Titer ([1]; average of duplicate cultures) [µg/mL] | interferon beta expression compared with the control transposon [1, 3] | Titer [1, 4] [µg/mL] | Titer [1, 5] [µg/mL] | Average Titer ([2]; average of duplicate cultures) [µg/mL] | interferon beta expression compared with the control transposon [2, 3] | Titer [2, 4] [µg/mL] | Titer [2, 5] [µg/mL] |
| --- | --- | --- | --- | --- | --- | --- | --- | --- |
| B1 | 99.3 | as much as twice the expression levels of interferon beta as the control transposon | 92.9 | 105.7 |  |  |  |  |
| B2 |  |  |  |  | 34.5 | a small decrease in interferon beta expression | 22.8 | 46.1 |

From patent publication US20230313187A1, “MODIFICATIONS OF MAMMALIAN CELLS USING ARTIFICIAL MICRO-RNA TO ALTER THEIR PROPERTIES AND THE COMPOSITIONS OF THEIR PRODUCTS” (DNA TWOPOINTO INC., priority 2020, published 2023)
